This experiment addresses T1, receptor-binding domain (RBD) of the spike protein of SARS-CoV-2 (SARS-CoV-2, UniProt P0DTC2).
T1 construct: also called re-engineered RBD
The experiment in a line: SEC. The conditions noted are these: both partners purified.

B1: Sb16 (VHH)
VHH: QVQLVESGGGLVQAGGSLRLSCAASGFPVAYKTMWWYRQAPGKEREWVAAIESYGIKWTRYADSVKGRFTISRDNAKNTVYLQMNSLKPEDTAVYYCIVWVGAQYHGQGTQVTVSA
In the case of B1, the binding result is on record as “binds”.

The values are drawn from paper doi:10.1101/2021.01.27.428466 (bioRxiv, 2021).
